Results published in patent US20240228648A1.

Legend:
[1] = target: CD38 on the surface of Daudi cells (human) (UniProt P28907); assay: flow cytometry on Daudi cells, antibody 0.206 nM
[2] = target: recombinant biotinylated CD38-avi protein (extracellular domain of human CD38) (human) (UniProt P28907); assay: capture ELISA, antibody 0.781 nM, biotinylated CD38-avi 0.5 ug/ml
[3] = target: recombinant biotinylated CD38-avi protein (extracellular domain of human CD38) (human) (UniProt P28907); assay: competitive ELISA: plate coated with Darzalex (2 µg/ml); biotinylated CD38 (0.2 µg/ml) pre-incubated with soluble Darzalex (15 µg/ml), captured CD38 detected with streptavidin-HRP; replicate 2
[4] = target: CD38 on the surface of Daudi cells (human) (UniProt P28907); assay: flow cytometry on Daudi cells, antibody 5.56 nM
[5] = target: CD38 on the surface of Daudi cells (human) (UniProt P28907); assay: flow cytometry on Daudi cells, antibody 300 nM
[6] = target: CD38 on the surface of Daudi cells (human) (UniProt P28907); assay: cell-based or functional assay
[7] = target: recombinant biotinylated CD38-avi protein (extracellular domain of human CD38) (human) (UniProt P28907); assay: capture ELISA, antibody 0 nM (background), biotinylated CD38-avi 0.5 ug/ml
[8] = target: recombinant biotinylated CD38-avi protein (extracellular domain of human CD38) (human) (UniProt P28907); assay: capture ELISA, antibody 0.195 nM, biotinylated CD38-avi 0.5 ug/ml
[9] = target: CD38 on the surface of Daudi cells (human) (UniProt P28907); assay: flow cytometry on Daudi cells, antibody 50 nM
[10] = target: recombinant biotinylated CD38-avi protein (extracellular domain of human CD38) (human) (UniProt P28907); assay: capture ELISA, antibody 50 nM, biotinylated CD38-avi 0.5 ug/ml
[11] = target: recombinant biotinylated CD38-avi protein (extracellular domain of human CD38) (human) (UniProt P28907); assay: capture ELISA: antibody captured by anti-human Fc, biotinylated CD38-avi 0.5 ug/ml, fit in GraphPad Prism
[12] = target: CD38 on the surface of Daudi cells (human) (UniProt P28907); assay: flow cytometry on Daudi cells, antibody 16.7 nM
[13] = target: recombinant biotinylated CD38-avi protein (extracellular domain of human CD38) (human) (UniProt P28907); assay: competitive ELISA: plate coated with Darzalex (2 µg/ml); biotinylated CD38 (0.2 µg/ml) pre-incubated with soluble Darzalex (15 µg/ml), captured CD38 detected with streptavidin-HRP; replicate 1
[14] = target: recombinant biotinylated CD38-avi protein (extracellular domain of human CD38) (human) (UniProt P28907); assay: capture ELISA, antibody 0.049 nM, biotinylated CD38-avi 0.5 ug/ml
[15] = target: recombinant biotinylated CD38-avi protein (extracellular domain of human CD38) (human) (UniProt P28907); assay: capture ELISA, antibody 0.012 nM, biotinylated CD38-avi 0.5 ug/ml
[16] = target: CD38 on the surface of Daudi cells (human) (UniProt P28907); assay: flow cytometry on Daudi cells, antibody 1.617 nM (so in the source)
[17] = target: recombinant biotinylated CD38-avi protein (extracellular domain of human CD38) (human) (UniProt P28907); assay: capture ELISA, antibody 12.5 nM, biotinylated CD38-avi 0.5 ug/ml
[18] = target: recombinant biotinylated CD38-avi protein (extracellular domain of human CD38) (human) (UniProt P28907); assay: competitive ELISA, no competitor: plate coated with Darzalex (2 µg/ml); biotinylated CD38 alone, captured CD38 detected with streptavidin-HRP; replicate 1
[19] = target: CD38 on the surface of Daudi cells (human) (UniProt P28907); assay: flow cytometry on Daudi cells, anti-human IgG-Alexa647, fit in GraphPad Prism
[20] = target: CD38 on the surface of Daudi cells (human) (UniProt P28907); assay: flow cytometry on Daudi cells, antibody 0.069 nM
[21] = target: CD38 on the surface of Daudi cells (human) (UniProt P28907); assay: flow cytometry on Daudi cells, antibody 1.85 nM
[22] = target: recombinant biotinylated CD38-avi protein (extracellular domain of human CD38) (human) (UniProt P28907); assay: competitive ELISA, no competitor: plate coated with Darzalex (2 µg/ml); biotinylated CD38 alone, captured CD38 detected with streptavidin-HRP; replicate 2
[23] = target: recombinant biotinylated CD38-avi protein (extracellular domain of human CD38) (human) (UniProt P28907); assay: capture ELISA, antibody 3.125 nM, biotinylated CD38-avi 0.5 ug/ml

Darzalex (antibody)
Mean fluorescence [1]: 46700 | OD450 [2]: 0.145 OD450 | OD450 [3]: 0.176 | Mean fluorescence [4]: 1.09e+06 | Mean fluorescence [5]: 1.29e+06 | ADCC activity (luciferase) on Daudi cells at 0.0015 nM antibody [6]: 0.12 | ADCC activity (luciferase) on Daudi cells at 0.006 nM antibody [6]: 1.32 | ADCC activity (luciferase) on Daudi cells at 0.0244 nM antibody [6]: 3.88 | ADCC activity (luciferase) on Daudi cells at 0.098 nM antibody [6]: 14.7 | ADCC activity (luciferase) on Daudi cells at 0.39 nM antibody [6]: 40.9 | ADCC activity (luciferase) on Daudi cells at 1.56 nM antibody [6]: 57.2 | ADCC activity (luciferase) on Daudi cells at 6.25 nM antibody [6]: 61 | ADCC activity (luciferase) on Daudi cells at 25 nM antibody [6]: 64.1 | ADCC activity (luciferase) on Daudi cells at 100 nM antibody [6]: 66.5 | CDC: % live Daudi cells (P1) at 0.078 nM antibody [6]: 63.9% | CDC: % live Daudi cells (P1) at 0.156 nM antibody [6]: 75.2% | CDC: % live Daudi cells (P1) at 0.3125 nM antibody [6]: 70.6% | CDC: % live Daudi cells (P1) at 0.625 nM antibody [6]: 67.4% | CDC: % live Daudi cells (P1) at 1.25 nM antibody [6]: 55.6% | CDC: % live Daudi cells (P1) at 2.5 nM antibody [6]: 47.6% | CDC: % live Daudi cells (P1) at 5 nM antibody [6]: 40.9% | CDC: % live Daudi cells (P1) at 10 nM antibody [6]: 32.3% | OD450 [7]: 0.143 OD450 | OD450 [8]: 0.135 OD450 | Mean fluorescence [9]: 1.31e+06 | OD450 [10]: 0.171 OD450 | Kd [11]: 1.64 nM | Mean fluorescence [12]: 1.34e+06 | OD450 [13]: 0.168 | OD450 [14]: 0.147 OD450 | OD450 [15]: 0.135 OD450 | Mean fluorescence [16]: 158000 | OD450 [17]: 0.164 OD450 | OD450 [18]: 0.377 | Kd [19]: 3.26 nM | Mean fluorescence [20]: 9320 | Mean fluorescence [21]: 574000 | OD450 [22]: 0.385 | OD450 [23]: 0.172 OD450
